Laboratory results: article PMC8682993 (Science Advances, 2021)
Where “and” joins values, the source holds several entries; their conditions need not be identical. Equal entries are not always repeated.

Experiments:
[1] = target: T1, full-length yeast Hsp90 (Hsp82) (yeast, UniProt P02829 1-709); experiment: AUC
[2] = target: T1, full-length yeast Hsp90 (Hsp82); experiment: fluorescence polarisation

T1 sequence (P02829 whole entry): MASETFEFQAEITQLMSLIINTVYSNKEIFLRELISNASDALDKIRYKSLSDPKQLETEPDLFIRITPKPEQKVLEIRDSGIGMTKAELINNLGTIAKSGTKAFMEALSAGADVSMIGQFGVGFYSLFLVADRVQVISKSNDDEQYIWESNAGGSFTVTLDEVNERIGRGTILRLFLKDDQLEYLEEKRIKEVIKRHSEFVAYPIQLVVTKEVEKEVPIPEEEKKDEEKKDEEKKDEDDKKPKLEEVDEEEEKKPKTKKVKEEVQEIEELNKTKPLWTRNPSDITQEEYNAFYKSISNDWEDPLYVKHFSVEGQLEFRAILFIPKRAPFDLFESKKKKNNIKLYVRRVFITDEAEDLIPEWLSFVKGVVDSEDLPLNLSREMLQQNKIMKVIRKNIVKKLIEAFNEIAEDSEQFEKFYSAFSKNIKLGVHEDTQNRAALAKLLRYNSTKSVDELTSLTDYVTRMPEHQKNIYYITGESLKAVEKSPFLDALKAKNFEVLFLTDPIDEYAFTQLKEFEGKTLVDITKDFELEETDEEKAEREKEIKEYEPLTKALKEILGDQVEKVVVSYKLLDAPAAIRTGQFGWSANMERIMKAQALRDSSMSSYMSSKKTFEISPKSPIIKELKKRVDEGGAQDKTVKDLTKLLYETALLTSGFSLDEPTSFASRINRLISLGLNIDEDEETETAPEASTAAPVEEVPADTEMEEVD

| Kd [2] | Binder | binding result [1] |
| --- | --- | --- |
| – | MR-LBD (C805S/A841C) (domain or fragment) APTKEPSVNSALVPQLTSITHALTPSPAMILENIEPETVYAGYDNSKPDTAESLLSTLNRLAAKQMIQVVKWAKVLPGFKNLPLEDQITLIQYSWMSLSSFALSWRSYKHTNSQLLYFAPDLVFNEEKMHQSCMYELCQGMRQISLQFVRLQLTFEEYSIMKVLLLLSTVPKDGLKSQAAFEEMRTNYIKELRKMVTKCPNSSGQSWQRFYQLTKLLDSMHDLVSDLLEFCFYTFRESQALKVEFPAMLVEIITDQLPKVESGNAKPLYFHRK | binds |
| – | p53-DBD (C124S/C229S/C277S) (domain or fragment) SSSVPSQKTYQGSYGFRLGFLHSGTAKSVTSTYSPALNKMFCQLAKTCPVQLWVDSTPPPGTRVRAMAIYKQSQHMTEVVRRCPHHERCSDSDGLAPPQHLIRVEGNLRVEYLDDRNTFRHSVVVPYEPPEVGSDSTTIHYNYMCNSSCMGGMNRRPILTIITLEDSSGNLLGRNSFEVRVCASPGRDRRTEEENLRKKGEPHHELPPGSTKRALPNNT | binds |
| 5.7 µM and 5.3 µM and 2.2 µM and 1.9 µM | rat MR-LBD (amino acids 709 to 981; C805S) (domain or fragment, ATTO 488 maleimide, randomly on cysteine residues (anisotropy and AUC)) APTKEPSVNSALVPQLTSITHALTPSPAMILENIEPETVYAGYDNSKPDTAESLLSTLNRLAAKQMIQVVKWAKVLPGFKNLPLEDQITLIQYSWMSLSSFALSWRSYKHTNSQLLYFAPDLVFNEEKMHQSAMYELCQGMRQISLQFVRLQLTFEEYSIMKVLLLLSTVPKDGLKSQAAFEEMRTNYIKELRKMVTKCPNSSGQSWQRFYQLTKLLDSMHDLVSDLLEFCFYTFRESQALKVEFPAMLVEIITDQLPKVESGNAKPLYFHRK | – |
